# Publication PMC12097012, “Direct Quantification of Protein–Protein Interactions in Living Bacterial Cells” (Advanced Science, 2025)
# Ends that are not written are not given here.
# T1: UvrA-eGFPd (E. coli, UniProt P0A698 1-940)
# T1 construct: UvrA, nucleotide excision repair protein of E. coli; source: E. coli BW25993 with double deletion of uvrA and uvrB (SY006), expressed from the donor vector, in living cells; not shown: eGFPd, C-terminal, kept
# T1 sequence (looked up): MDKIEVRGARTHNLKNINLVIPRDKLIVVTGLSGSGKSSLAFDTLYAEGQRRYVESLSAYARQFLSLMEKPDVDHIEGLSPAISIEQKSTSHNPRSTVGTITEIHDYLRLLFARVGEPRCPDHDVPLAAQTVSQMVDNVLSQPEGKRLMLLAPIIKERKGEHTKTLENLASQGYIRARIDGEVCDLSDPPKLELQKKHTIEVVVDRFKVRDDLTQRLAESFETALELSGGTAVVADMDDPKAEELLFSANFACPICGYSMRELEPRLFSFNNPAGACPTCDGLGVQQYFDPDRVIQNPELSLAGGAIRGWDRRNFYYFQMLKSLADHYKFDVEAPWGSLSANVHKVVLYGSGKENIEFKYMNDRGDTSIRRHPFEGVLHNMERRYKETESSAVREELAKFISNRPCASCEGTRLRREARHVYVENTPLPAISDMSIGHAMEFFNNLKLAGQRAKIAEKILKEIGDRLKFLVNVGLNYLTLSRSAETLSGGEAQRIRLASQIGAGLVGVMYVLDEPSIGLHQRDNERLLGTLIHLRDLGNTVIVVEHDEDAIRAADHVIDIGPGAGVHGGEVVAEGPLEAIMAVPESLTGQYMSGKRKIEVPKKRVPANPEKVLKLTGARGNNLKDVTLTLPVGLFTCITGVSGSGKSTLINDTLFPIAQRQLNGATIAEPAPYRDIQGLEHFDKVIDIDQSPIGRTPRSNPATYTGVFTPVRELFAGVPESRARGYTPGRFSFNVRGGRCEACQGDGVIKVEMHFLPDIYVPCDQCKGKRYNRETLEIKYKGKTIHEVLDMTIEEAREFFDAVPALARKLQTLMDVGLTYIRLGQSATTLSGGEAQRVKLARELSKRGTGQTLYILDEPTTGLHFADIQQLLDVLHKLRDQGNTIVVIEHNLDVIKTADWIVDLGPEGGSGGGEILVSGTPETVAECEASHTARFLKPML
# T2: ^CDD_(ElaJ)
# T2 chain: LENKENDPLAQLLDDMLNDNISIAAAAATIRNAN
# T3: ^CDD_(MlnD) labeled with eGFPd
# T3 chain: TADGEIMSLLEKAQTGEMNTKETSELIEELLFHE
# T4: eGFPd-^CDD_(MlnB)
# T4 chain: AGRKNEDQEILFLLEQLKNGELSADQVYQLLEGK
# Legend:
# UvrA-eGFPd = target: T1, UvrA-eGFPd; assay: FRET or BRET; KD-FRET: sensitized-emission (three-channel) FRET microscopy of single living E. coli BW25993 cells (UvrA/UvrB: uvrA uvrB double deletion strain), donor eGFPd fusion from pFF838, acceptor mRFP fusion from pBBR6k, M9 medium, 37 °C; corrections to step 6; FRET efficiency against binned acceptor concentration fitted to a quadratic binding equation; conditions: partners not purified
# ^CDD_(ElaJ) = target: T2, ^CDD_(ElaJ); assay: as above; conditions: partners not purified
# [1] = target: T3, ^CDD_(MlnD) labeled with eGFPd; assay: FRET or BRET; in vitro FRET with purified fusion proteins in PBS, plate reader, 37 °C; donor protein fixed at 1 × 10^-6 M, acceptor protein 0 to 20 × 10^-6 M; conditions: both partners purified
# [2] = target: T3, ^CDD_(MlnD) labeled with eGFPd; assay: FRET or BRET; KD-FRET: sensitized-emission (three-channel) FRET microscopy of single living E. coli BW25993 cells (UvrA/UvrB: uvrA uvrB double deletion strain), donor eGFPd fusion from pFF838, acceptor mRFP fusion from pBBR6k, M9 medium, 37 °C; corrections to step 6; FRET efficiency against binned acceptor concentration fitted to a quadratic binding equation; conditions: partners not purified
# eGFPd-^CDD_(MlnB) [3] = target: T4, eGFPd-^CDD_(MlnB); assay: FRET or BRET; in vitro FRET with purified fusion proteins in PBS, plate reader, 37 °C; donor protein fixed at 1 × 10^-6 M, acceptor protein 0 to 20 × 10^-6 M; conditions: both partners purified
# eGFPd-^CDD_(MlnB) [4] = target: T4, eGFPd-^CDD_(MlnB); assay: FRET or BRET; KD-FRET: sensitized-emission (three-channel) FRET microscopy of single living E. coli BW25993 cells (UvrA/UvrB: uvrA uvrB double deletion strain), donor eGFPd fusion from pFF838, acceptor mRFP fusion from pBBR6k, M9 medium, 37 °C; corrections to step 6; FRET efficiency against binned acceptor concentration fitted to a quadratic binding equation; conditions: partners not purified
# eGFPd-^CDD_(MlnB) [5] = target: T4, eGFPd-^CDD_(MlnB); assay: ITC; cell: 80 × 10^-6 M eGFPd-CDD_MlnB; syringe: 1.6 × 10^-3 M NDD_MlnC-mRFP, 20 injections of 2 µL; 20 mM Tris-HCl pH 7.9, 250 mM NaCl, 1 mM EDTA, 10% glycerol, 1 mM TCEP; 37 °C; single binding site model; conditions: both partners purified
binder,measurement,setting,value
"UvrB-mRFP (natural protein, E. coli, UniProt P0A8F8 1-673, looked up, UvrB, nucleotide excision repair protein of E. coli; source: E. coli BW25993 with double deletion of uvrA and uvrB (SY006), expressed from the acceptor vector, in living cells; not shown: mRFP, C-terminal, kept) MSKPFKLNSAFKPSGDQPEAIRRLEEGLEDGLAHQTLLGVTGSGKTFTIANVIADLQRPTMVLAPNKTLAAQLYGEMKEFFPENAVEYFVSYYDYYQPEAYVPSSDTFIEKDASVNEHIEQMRLSATKAMLERRDVVVVASVSAIYGLGDPDLYLKMMLHLTVGMIIDQRAILRRLAELQYARNDQAFQRGTFRVRGEVIDIFPAESDDIALRVELFDEEVERLSLFDPLTGQIVSTIPRFTIYPKTHYVTPRERIVQAMEEIKEELAARRKVLLENNKLLEEQRLTQRTQFDLEMMNELGYCSGIENYSRFLSGRGPGEPPPTLFDYLPADGLLVVDESHVTIPQIGGMYRGDRARKETLVEYGFRLPSALDNRPLKFEEFEALAPQTIYVSATPGNYELEKSGGDVVDQVVRPTGLLDPIIEVRPVATQVDDLLSEIRQRAAINERVLVTTLTKRMAEDLTEYLEEHGERVRYLHSDIDTVERMEIIRDLRLGEFDVLVGINLLREGLDMPEVSLVAILDADKEGFLRSERSLIQTIGRAARNVNGKAILYGDKITPSMAKAIGETERRREKQQKYNEEHGITPQGLNKKVVDILALGQNIAKTKAKGRGKSRPIVEPDNVPMDMSPKALQQKIHELEGLMMQHAQNLEFEEAAQIRDQLHQLRELFIAAS",Kd,UvrA-eGFPd,170 nM
"MKDYIEHILEEIKHNRLSKQEGLEQIRQFRSKGNV (domain or fragment, not fully specified) [^NDD_(ElaK)]",Kd,^CDD_(ElaJ),1180 nM
"MNEKTMQIEQIVKKVKECSLTPEEGLELIKSLGKT (domain or fragment, also: labeled with mRFP) [^NDD_(MlnE) labeled with mRFP]",Kd,[1],1500 nM
same,Kd,[2],250 nM
"MQIKQILSLIEEQQMSPDAGLELIRTYRKEQMEKK (domain or fragment, also: fused to mRFP) [^NDD_(MlnC)-mRFP]",Kd,eGFPd-^CDD_(MlnB) [3],5660 nM
same,Kd,eGFPd-^CDD_(MlnB) [4],2290 nM
same,Kd,eGFPd-^CDD_(MlnB) [5],6850 nM
